{"source": "paper PMC6107761", "about": "“Preferential Binding of Mg^2+ Over Ca^2+ to CIB2 Triggers an Allosteric Switch Impaired in Usher Syndrome Type 1J” (Frontiers in Molecular Neuroscience, 2018)", "binders": {"B1": {"name": "human wild type calcium and integrin binding protein 2 (CIB2) (natural protein, UniProt O75838-1 1-187, looked up)", "chain": "MGNKQTIFTEEQLDNYQDCTFFNKKDILKLHSRFYELAPNLVPMDYRKSPIVHVPMSLIIQMPELRENPFKERIVAAFSEDGEGNLTFNDFVDMFSVLCESAPRELKANYAFKIYDFNTDNFICKEDLELTLARLTKSELDEEEVVLVCDKVIEEADLDGDGKLGFADFEDMIAKAPDFLSTFHIRI", "notes": "21.6 kDa; complete cDNA; Non-covalent dimer by SEC, Ferguson plots and DLS under reducing conditions; Tag removed by TEV protease; also called WT CIB2; WT; source: E. coli BL21 DE3, purified (His-trap, TEV cleavage, second His-trap flow-through); not shown: 6xHis, N-terminal, cleaved"}, "B2": {"name": "human E64D CIB2 (natural protein, UniProt O75838-1 1-187, looked up)", "chain": "MGNKQTIFTEEQLDNYQDCTFFNKKDILKLHSRFYELAPNLVPMDYRKSPIVHVPMSLIIQMPDLRENPFKERIVAAFSEDGEGNLTFNDFVDMFSVLCESAPRELKANYAFKIYDFNTDNFICKEDLELTLARLTKSELDEEEVVLVCDKVIEEADLDGDGKLGFADFEDMIAKAPDFLSTFHIRI", "notes": "point mutation E64D made by site-directed mutagenesis on the complete cDNA; variant associated with Usher syndrome type 1J / non-syndromic hearing loss; After elution treated as the WT protein (TEV cleavage of the His tag); Dimer by SEC and Ferguson plots; also called p.E64D; USH1J-related variant; not shown: 6xHis, N-terminal, cleaved"}, "B3": {"name": "peptide of the membrane proximal segment of the cytoplasmic domain of α7B integrin, residues 1101-1116 (peptide)", "peptide": "Ac-LLLWKMGFFKRAKHPE-NH2", "notes": "Integrin α7B, membrane proximal segment of the cytoplasmic domain, residues 1101-1116 of Uniprot entry Q13683; source: synthetic peptide (GenScript)"}}, "key": {"[1]": {"target": "B3", "assay": "other fluorescence titration; Trp emission spectra of 4 μM peptide alone and with fixed concentrations of WT CIB2 (8 μM for α7B_M; 2, 4 and 8 μM for Scrb); 20 mM Hepes, 150 mM KCl, 1 mM DTT pH 7.5, 37°C, 1 mM Mg2+ and 1 mM Ca2+", "details": "both partners purified"}, "[2]": {"target": "B3", "assay": "other fluorescence titration; 4 μM α7B_M peptide titrated with increasing CIB2; blue shift of the peptide's Trp emission peak (excitation 295 nm); 20 mM Hepes, 150 mM KCl, 1 mM DTT pH 7.5, 37°C, 1 mM Mg2+ and 1 mM Ca2+; apparent Kd", "details": "both partners purified"}, "[3]": {"target": "the molecule itself", "assay": "SEC; analytical SEC, Superose 12 10/300GL; 20 mM Tris pH 7.5, 150 mM KCl, 1 mM DTT with 3 mM EGTA or 2 mM EGTA + 3 mM Mg2+ or 3 mM Mg2+ + 2 mM Ca2+; WT 100 μM, E64D 70 μM; MW from a calibration plot"}, "[4]": {"target": "B2", "assay": "other fluorescence titration; 4 μM α7B_M peptide titrated with increasing CIB2; blue shift of the peptide's Trp emission peak (excitation 295 nm); 20 mM Hepes, 150 mM KCl, 1 mM DTT pH 7.5, 37°C, 1 mM Mg2+ and 1 mM Ca2+; apparent Kd", "details": "both partners purified"}, "[5]": {"target": "B1", "assay": "other fluorescence titration; 4 μM α7B_M peptide titrated with increasing CIB2; blue shift of the peptide's Trp emission peak (excitation 295 nm); 20 mM Hepes, 150 mM KCl, 1 mM DTT pH 7.5, 37°C, 1 mM Mg2+ and 1 mM Ca2+; apparent Kd", "details": "both partners purified"}}}
{"binder": "B1", "values": [{"measurement": "fold increase in the maximal fluorescence emission of the peptide", "setting": "[1]", "value": 1.7, "unit": "fold"}, {"measurement": "stoichiometry N", "setting": "[2]", "value": 2, "unit": "CIB2 chains per peptide"}]}
{"binder": "B2", "values": [{"measurement": "stoichiometry N", "setting": "[2]", "value": 2, "unit": "CIB2 chains per peptide"}, {"measurement": "stoichiometry N", "setting": "[3]", "value": 2}]}
{"binder": "B3", "values": [{"measurement": "Kd", "setting": "[4]", "value": 3.1, "unit": "µM"}, {"measurement": "Kd", "setting": "[5]", "value": 4.99, "unit": "µM"}]}
